# Data from patent US6498233 (dated 1996).
# B1: scFv(FRP5)-DETA-DGAL4 protein (scFv)
# chain: DYKDDDDKLHHHHHHKLQVQLQQSGPELKKPGETVKISCKASGYPFTNYGMNWVKQAPGQGLKWMGWINTSTGESTFADDFKGRFDFSLETSANTAYLQINNLKSEDMATYFCARWEVYHGYVPYWGQGTTVTVSSGGGGSGGGGSGGGGSDIQLTQSHKFLSTSVGDRVSITCKASQDVYNAVAWYQQKPGQSPKLLIYSASSRYTGVPSRFTGSGSGPDFTFTISSVQAEDLAVYFCQQHFRTPFTFGSGTKLEIKALEGGSLAALTAHQACHLPLETFTRHRQPRGWEQLEQCGYPVQRLVALYLAARLSWNQVDQVIRNALASPGSGGDLGEAIREQPEQARLALTLAAAESERFVRQGTGNDEAGAANADEKLLSSIEQACDICRLKKLKCSKEKPKCAKCLKNNWECRYSPKTKRSPLTRAHLTEVESRLERLEQLFLLIFPREDLDMILKMDSLQDIKALLTGLFVQDNVNKDAVTDRLASVETDMPLTLRQHRISATSSSEESSNKGQRQLTVSSSDYKDEL
# Target: p185 erbB-2 on SK-BR-3 human breast carcinoma cells (human, UniProt P04626 23-1255)
binder,measurement,value
B1,EC50,20 nM
